According to paper PMC10857128:

What was measured:
[1] = biological target: peppermint leaf-type ferredoxin NADP+ reductase (L-FNR) (Mentha × piperita (peppermint))
[2] = biological target: peppermint root-type ferredoxin NADP+ reductase (R-FNR) (Mentha × piperita (peppermint))
[3] = biological target: peppermint root-type ferredoxin NADP+ reductase (R-FNR) (Mentha × piperita (peppermint)); remark: listed apart in the source

| Km^Fd, FNR–Fd-dependent cytochrome c reduction (NADPH-dependent cytochrome c reductase assay, Fd varied 0.3-20 µM, 30 °C, 50 mM Tris pH 7.5) [1] [µM] | kcat, FNR–Fd-dependent cytochrome c reduction (NADPH-dependent cytochrome c reductase assay, Fd varied 0.3-20 µM, 30 °C, 50 mM Tris pH 7.5) [1] [s^−1] | kcat/Km^Fd, FNR–Fd-dependent cytochrome c reduction (NADPH-dependent cytochrome c reductase assay, Fd varied 0.3-20 µM, 30 °C, 50 mM Tris pH 7.5) [1] [µM^−1s^−1] | Km^Fd, FNR–Fd-dependent cytochrome c reduction (NADPH-dependent cytochrome c reductase assay, Fd varied 0.3-20 µM, 30 °C, 50 mM Tris pH 7.5) [2] [µM] | kcat, FNR–Fd-dependent cytochrome c reduction (NADPH-dependent cytochrome c reductase assay, Fd varied 0.3-20 µM, 30 °C, 50 mM Tris pH 7.5) [2] [s^−1] | kcat/Km^Fd, FNR–Fd-dependent cytochrome c reduction (NADPH-dependent cytochrome c reductase assay, Fd varied 0.3-20 µM, 30 °C, 50 mM Tris pH 7.5) [2] [µM^−1s^−1] | Km value for Fd III as told in the text, NADPH-dependent cytochrome c reductase assay (differs from the cell of Table 2) [3] [µM] | Substance |
| --- | --- | --- | --- | --- | --- | --- | --- |
| 2.3 | 125 | 54.2 | 3.6 | 281 | 78.3 | – | peppermint leaf-type ferredoxin (Fd I) (natural protein) |
| 2.8 | 304 | 109 | 1.9 | 428 | 222 | – | peppermint root-type ferredoxin (Fd II) (natural protein) |
| 2.9 | 286 | 98.1 | 2.3 | 428 | 189 | 2.1 | peppermint root-type ferredoxin (Fd III) (natural protein) |
